Data reported in patent publication US10662235B2, “Cysteine engineered fibronectin type III domain binding molecules” (Janssen Biotech, Inc., priority 2016, dated 2020).
Substitutions are numbered along the chain they refer to.

B1: P114AR7P92-G8: c-Met-binding FN3 domain, SEQ ID NO: 36 (protein)
chain: LPAPKNLVVSRVTEDSARLSWTAPDAAFDSFVIRYFEFLGSGEAIVLTVPGSERSYDLTGLKPGTEYVVQILGVKGGYISIPLSAIFTT
modifications: c-Met binding FN3 domain
B2: P114AR7P93-H9: c-Met-binding FN3 domain, SEQ ID NO: 40 (protein)
chain: B1 chain with V32W, L72I, Y78H, I81L
modifications: c-Met binding FN3 domain
B3: P114AR7P92-F6: c-Met-binding FN3 domain, SEQ ID NO: 35 (protein)
chain: B1 chain with V32W, Q70N, Y78G, I79L, I81V
modifications: c-Met binding FN3 domain
B4: P114AR7P95-H8: c-Met-binding FN3 domain, SEQ ID NO: 49 (protein)
chain: B1 chain with V32W, L39V, G40S, S41K, Q70N, L72M, Y78S, I81P
modifications: c-Met binding FN3 domain
B5: P114AR7P95-D4: c-Met-binding FN3 domain, SEQ ID NO: 45 (protein)
chain: B1 chain with V32W
modifications: c-Met binding FN3 domain
B6: P114AR7P94-E5: c-Met-binding FN3 domain, SEQ ID NO: 42 (protein)
chain: B1 chain with V32W, V68A, Q70N, L72M, Y78R, I79V, I81V
modifications: c-Met binding FN3 domain
B7: P114AR7P92-H5: c-Met-binding FN3 domain, SEQ ID NO: 37 (protein)
chain: B1 chain with V32W, F36L, G40L, S41G, L72M, Y78T, I79V, I81P
modifications: c-Met binding FN3 domain
B8: P114AR5P74-A5: c-Met-binding FN3 domain, SEQ ID NO: 32 (protein)
chain: B1 chain with V32W, F36D, F38V, L39V, G40V, S41G, V68Y, Q70N, Y78S, I81V
modifications: c-Met binding FN3 domain
B9: P114AR7P93-G8: c-Met-binding FN3 domain, SEQ ID NO: 39 (protein)
chain: B1 chain with V32W, G60D, V68G, Q70T, L72N, Y78R, I79V, I81T
modifications: c-Met binding FN3 domain
B10: P114AR7P94-A3: c-Met-binding FN3 domain, SEQ ID NO: 41 (protein)
chain: B1 chain with V32W, Q70N, L72M, Y78K, I81P
modifications: c-Met binding FN3 domain
B11: P114AR7P95-F10: c-Met-binding FN3 domain, SEQ ID NO: 47 (protein)
chain: B1 chain with V32W, L39T, G40T, S41A, Q70N, L72M, Y78S, I81P
modifications: c-Met binding FN3 domain
B12: P114AR7P95-G7: c-Met-binding FN3 domain, SEQ ID NO: 48 (protein)
chain: B1 chain with V32W, F38L, G40S, S41T, Q70N, L72M, Y78S, I81P
modifications: c-Met binding FN3 domain

Assay: Thermal stability by differential scanning calorimetry
Assay type: physicochemical
Settings: c-Met-binding FN3 domains, DSC in PBS
Experimental: The thermal stability of cysteine-NEM conjugates was assessed by differential scanning calorimetry (DSC). The only the conjugates tested were those determined to express at high levels, conjugate efficiently, and retain EGFR binding. Additionally, cysteine variants within the BC and FG loops were excluded. Stability data was generated by heating a 400 μL aliquot of the variant from 25° C. to 100° C. at a scan rate of 1° C. per minute in a VP-DSC instrument (MicroCal). A second identical scan was completed on the sample in order to assess the reversibility of thermal folding/unfolding. Data was fitted to a 2-state unfolding model in order to calculate the melting temperature (Table 10).
Thermal Stability of c-Met-Binding FN3 Domains Differential scanning calorimetry in PBS was used to assess the stability of each FN3 domain.

Row | Molecule | Thermal Stability (Tm, C.) [C.]
1 | B1 | 90.9
2 | B2 | 88.2
3 | B3 | 76.8
4 | B4 | 83
5 | B5 | 85.3
6 | B6 | 80
7 | B7 | 87
8 | B8 | 74.1
9 | B9 | 76.8
10 | B10 | 86.2
11 | B11 | 85.2
12 | B12 | 87.2
